Measurements published in PMC4557296.
pKd: −log10 of the molar value. Blank lines part the entries; values can stand above or below the substance they belong to.

Legend:
[1] = biological target: Atto532-labelled HP1α (human); test: smTIRFM (fluorescence intensities of individual binding events); as a10, in the presence of 1 μM peptide P3
[2] = biological target: H3K9me3 (100%) chromatin array (12 nucleosomes) (human) (UniProt P68431); test: smTIRFM (single-molecule total internal reflection fluorescence microscopy); as a3, in the presence of 1 μM peptide P3
[3] = biological target: H3K9me3 (100%) chromatin array (12 nucleosomes) (human) (UniProt P68431); test: smTIRFM (single-molecule total internal reflection fluorescence microscopy); as a3, with the mutated peptide P4 added (concentration not given)
[4] = biological target: H3K9me3 (100%) chromatin array (12 nucleosomes) (human) (UniProt P68431); test: smTIRFM (single-molecule total internal reflection fluorescence microscopy); as a3, with 50 nM unlabelled HP1α added to 1 nM Atto532-labelled HP1α
[5] = biological target: H3K9me3 (100%) chromatin array (12 nucleosomes) (human) (UniProt P68431); test: smTIRFM (single-molecule total internal reflection fluorescence microscopy); as a3, with 250 nM unlabelled HP1α added to 1 nM Atto532-labelled HP1α
[6] = biological target: H3K9me3 (100%) chromatin array (12 nucleosomes) (human) (UniProt P68431); test: smTIRFM (single-molecule total internal reflection fluorescence microscopy); as a3, with 1000 nM unlabelled HP1α added to 1 nM Atto532-labelled HP1α
[7] = biological target: Atto532-labelled HP1α (human); test: smTIRFM (fluorescence intensities of individual binding events); 1 nM Atto532-labelled HP1α on immobilised chromatin arrays; share of events with the intensity of a dimer
[8] = biological target: H3K9me0 (unmodified) chromatin array (12 nucleosomes) (human) (UniProt P68431); test: smTIRFM (single-molecule total internal reflection fluorescence microscopy); chromatin arrays or mononucleosomes immobilised by biotin-neutravidin on PEG-passivated coverslips; 1 nM Atto532-labelled HP1α or 0.5 nM HP1αcdm in 50 mM HEPES, 130 mM KCl, 10% glycerol, 2 mM trolox, 0.005% tween-20, glucose and oxygen removal system; dwell-time histograms; apparent KD for a nucleosome in an array, calculated from the fast phase
[9] = biological target: H3K9me3 (100%) chromatin array (12 nucleosomes) (human) (UniProt P68431); test: as above
[10] = biological target: H3K9me3 (25%) chromatin array (12 nucleosomes) (human) (UniProt P68431); test: as above
[11] = biological target: H3K9me3 (50%) chromatin array (12 nucleosomes) (human) (UniProt P68431); test: as above
[12] = biological target: H3K9me3 (75%) chromatin array (12 nucleosomes) (human) (UniProt P68431); test: as above
[13] = biological target: H3K9me3 mononucleosome (human) (UniProt P68431); test: as above
[14] = biological target: H3K9me3 (100%) chromatin array (12 nucleosomes) (human) (UniProt P68431); test: as above; remark: listed apart in the source
[15] = biological target: H3K9me3 (100%) chromatin array (12 nucleosomes) (human) (UniProt P68431); test: as above; remark: listed apart in the source
[16] = biological target: Atto532-labelled HP1α (human); test: MST; H3K9me3 1–14 peptide serially diluted (0.1–100 μM) and mixed 1:1 with a 300 nM stock of Atto532-labelled HP1α or HP1αcdm; 150 mM NaCl, 50 mM HEPES, 0.05% Tween, 1 mM DTT, pH 7.5; quadratic binding equation
[17] = biological target: HP1α (I163E) (human) (UniProt P45973); test: as above
[18] = biological target: HP1αcdm (covalently dimerized HP1α, Atto532-labelled) (human) (UniProt P45973); test: as above
[19] = biological target: H3K9me3 (100%) chromatin array (12 nucleosomes) (human) (UniProt P68431); test: smTIRFM (single-molecule total internal reflection fluorescence microscopy); chromatin arrays or mononucleosomes immobilised by biotin-neutravidin on PEG-passivated coverslips; 1 nM Atto532-labelled HP1α or 0.5 nM HP1αcdm in 50 mM HEPES, 130 mM KCl, 10% glycerol, 2 mM trolox, 0.005% tween-20, glucose and oxygen removal system; dwell-time histograms; apparent KD for a nucleosome in an array, calculated from the fast phase; remark: listed apart in the source

Chain of HP1α (W40A) (P45973 whole entry, stated change not applied): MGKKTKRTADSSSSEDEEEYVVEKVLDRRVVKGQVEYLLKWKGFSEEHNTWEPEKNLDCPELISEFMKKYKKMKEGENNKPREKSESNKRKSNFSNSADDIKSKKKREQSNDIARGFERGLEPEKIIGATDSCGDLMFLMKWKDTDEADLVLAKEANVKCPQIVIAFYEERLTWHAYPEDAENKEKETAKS

percent dimeric HP1α [1]: 42%
pKd [2]: 6.42
kon [2]: 7.94e+06 M⁻¹ s⁻¹
λon (apparent association time constant) [2]: 10.5 s
τoff,1 (fast phase of dissociation) [2]: 0.33 s
τoff,2 (slow phase of dissociation) [2]: 4.8 s
pKd [3]: 6.08
kon [3]: 4.25e+06 M⁻¹ s⁻¹
λon (apparent association time constant) [3]: 19.6 s
τoff,1 (fast phase of dissociation) [3]: 0.28 s
τoff,2 (slow phase of dissociation) [3]: 4.45 s
pKd [4]: 5.83
kon [4]: 3.55e+06 M⁻¹ s⁻¹
λon (apparent association time constant) [4]: 23.8 s
τoff,1 (fast phase of dissociation) [4]: 0.19 s
τoff,2 (slow phase of dissociation) [4]: 3.97 s
pKd [5]: 5.43
kon [5]: 2.07e+06 M⁻¹ s⁻¹
λon (apparent association time constant) [5]: 43.3 s
τoff,1 (fast phase of dissociation) [5]: 0.13 s
τoff,2 (slow phase of dissociation) [5]: 3.93 s
pKd [6]: 5.51
kon [6]: 2.92e+06 M⁻¹ s⁻¹
λon (apparent association time constant) [6]: 29.3 s
τoff,1 (fast phase of dissociation) [6]: 0.11 s
τoff,2 (slow phase of dissociation) [6]: 2.75 s
percent of binding events attributed to dimeric protein [7]: 17%
τoff,1 (fast phase of dissociation) [8]: 0.08 s
τoff,2 (slow phase of dissociation) [8]: 3.7 s
pKd [9]: 5.94
kon [9]: 3.64e+06 M⁻¹ s⁻¹
λon (apparent association time constant) [9]: 22.9 s
τoff,1 (fast phase of dissociation) [9]: 0.25 s
τoff,2 (slow phase of dissociation) [9]: 2.26 s
pKd [10]: 5.22
kon [10]: 1.1e+06 M⁻¹ s⁻¹
λon (apparent association time constant) [10]: 75.8 s
τoff,1 (fast phase of dissociation) [10]: 0.15 s
τoff,2 (slow phase of dissociation) [10]: 4.57 s
pKd [11]: 5.47
kon [11]: 1.73e+06 M⁻¹ s⁻¹
λon (apparent association time constant) [11]: 48.2 s
τoff,1 (fast phase of dissociation) [11]: 0.17 s
τoff,2 (slow phase of dissociation) [11]: 4.09 s
pKd [12]: 5.49
kon [12]: 1.63e+06 M⁻¹ s⁻¹
λon (apparent association time constant) [12]: 51 s
τoff,1 (fast phase of dissociation) [12]: 0.19 s
τoff,2 (slow phase of dissociation) [12]: 4.03 s
τoff,1 (fast phase of dissociation) [13]: 0.13 s
τoff,2 (slow phase of dissociation) [13]: 1.18 s
τoff,2 (slow phase of dissociation) [14]: 2.3 s
kon [15]: 3.58e+06 M⁻¹ s⁻¹
Substance: Atto532-labelled HP1α (natural protein)

pKd [16]: 5.27
pKd [17]: 5.03
pKd [18]: 4.90
Substance: H3K9me3 1–14 peptide (from UniProt P68431 2-15)

λon (apparent association time constant) [9]: > 100 s
τoff,1 (fast phase of dissociation) [9]: 0.23 s
τoff,2 (slow phase of dissociation) [9]: 4.11 s
Substance: HP1α (I163E) (from UniProt P45973 1-191) (natural protein)

τoff,1 (fast phase of dissociation) [9]: 0.1 s
τoff,2 (slow phase of dissociation) [9]: 0.56 s
Substance: HP1α (W40A) (from UniProt P45973 1-191) (natural protein)

pKd [9]: 6.89
kon [9]: 2.24e+07 M⁻¹ s⁻¹
λon (apparent association time constant) [9]: 7.45 s
τoff,1 (fast phase of dissociation) [9]: 0.33 s
τoff,2 (slow phase of dissociation) [9]: 3.4 s
pKd [19]: 6.85
Substance: HP1αcdm (covalently dimerized HP1α, Atto532-labelled) (from UniProt P45973 1-177)
